Reference: US20190160076A1 (University of California, published 2019)

Target: T1, V5-tagged human lipoprotein lipase (LPL) (human, UniProt P06858 28-475)
T1 construct: also called V5-tagged human LPL; V5-LPL; not shown: V5 tag
T1 sequence: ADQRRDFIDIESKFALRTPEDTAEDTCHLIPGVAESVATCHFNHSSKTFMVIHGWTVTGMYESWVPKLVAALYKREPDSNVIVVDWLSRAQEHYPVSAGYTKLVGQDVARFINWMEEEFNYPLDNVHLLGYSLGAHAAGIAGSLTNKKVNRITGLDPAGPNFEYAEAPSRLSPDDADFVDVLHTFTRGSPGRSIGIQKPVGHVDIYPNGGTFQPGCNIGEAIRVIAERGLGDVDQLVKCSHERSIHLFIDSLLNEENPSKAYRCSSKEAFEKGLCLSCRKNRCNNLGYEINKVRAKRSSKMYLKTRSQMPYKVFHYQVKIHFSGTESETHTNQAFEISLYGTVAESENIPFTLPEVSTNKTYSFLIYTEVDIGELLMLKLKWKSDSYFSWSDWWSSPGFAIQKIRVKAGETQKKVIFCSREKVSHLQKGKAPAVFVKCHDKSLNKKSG
Assay: cell-based LPL binding, western blot of CHO cell extracts (FIG. 4A)
Procedure: FIG. 4A-B. GPIHBP1 Autoantibodies Block the Binding of LPL to GPIHBP1. […] The LPL used in these experiments was V5-tagged. Western blots were performed with a goat antibody against the S-protein tag (Abcam, 5 μg/ml), followed by an IRDye 680-donkey anti-goat IgG (LI_COR, 1:2000; GPIHBP1) and an IRDye 800-V5 antibody (1:500; LPL). Actin was used as a loading control, and was detected with a rabbit antibody against actin (Abcam, 5 μg/ml) followed by an IRDye 800-donkey anti-rabbit IgG (LI-COR, 1:2000; lower panel). […] In lane 5, pre-incubation of cells with plasma 38 (1:20) abolished LPL binding. […] In lane 2, a mutant GPIHBP1 (GPIHBP1-W109S), which lacks the ability to bind LPL, was included as a control. […] DNA was stained with DAPI (fourth column).
Expression vectors for S-protein-tagged wild-type (wt) GPIHBP1, GPIHBP1-G175R, and GPIHBP1-W109S (or the empty vector) were transfected into CHO pgsA-745 cells or human umbilical vein endothelial cells (HUVEC). After 1 day, the cells were washed three times in PBS and incubated for 1 h at 4° C. with V5-tagged human LPL (900 ng/well). Then the cells were washed six times in PBS, and cell lysates were collected in RIPA buffer (Sigma) containing a protease inhibitor cocktail (Roche). […]

B1: S-protein-tagged wild-type human GPIHBP1 (GPIHBP1-wt) expressed on transfected CHO pgsA-745 cells (receptor)
chain: QTQQEEEEEDEDHGPDDYDEEDEDEVEEEETNRLPGGRSRVLLRCYTCKSLPRDERCNLTQNCSHGQTCTTLIAHGNTESGLLTTHSTWCTDSCQPITKTVEGTQVTMTCCQSSLCNVPPWQSSRVQDPTG
notes: also called GPIHBP1-transfected cells; GPIHBP1-expressing cells; not shown: S-protein tag
Q: Does B1 bind?
A: Result: binds
